Source: article PMC6166713
pKd: −log10 of the molar value.

Legend:
[1] = molecular target: GST-WASP(201–321) wild type (UniProt P42768); assay: BLI; Octet Red; GST-WASP variants loaded on anti-GST sensors (10 μg/ml), dipped into a dilution range of Cdc42·GMPPNP; 50 mM Tris-HCl pH 7.5, 150 mM NaCl, 1 mM MgCl2, 0.02% Tween 20, 0.1% BSA, 0.05% sodium azide, 25 °C; GST-alone sensors subtracted
[2] = molecular target: GST-WASP(201–321) K225A/R227A (UniProt P42768); assay: as above
GST-WASP(201–321) K225A = GST-WASP(201–321) K225A (UniProt P42768); assay: as above
[3] = molecular target: GST-WASP(201–321) K225A/K226A (UniProt P42768); assay: as above
[4] = molecular target: GST-WASP(201–321) K225A/K226A/R227A/K230A/K231A/K232A (UniProt P42768); assay: as above
[5] = molecular target: GST-WASP(201–321) K226A/R227A (UniProt P42768); assay: scintillation proximity assay (SPA); 5 nM GST-WASP variant immobilised on protein A SPA fluoromicrospheres via an anti-GST antibody; varying concentrations of [3H]GTP·Cdc42; direct binding isotherm; apparent Kd; low-salt buffer
[6] = molecular target: GST-WASP(201–321) K225A/K226A/R227A (UniProt P42768); assay: as above
[7] = molecular target: GST-WASP(201–321) K230A/K231A (UniProt P42768); assay: as above
[8] = molecular target: GST-WASP(201–321) K230A/K231A/K232A (UniProt P42768); assay: as above
[9] = molecular target: GST-WASP(201–321) K225A/K226A (UniProt P42768); assay: as above
GST-WASP(201–321) R227A = GST-WASP(201–321) R227A (UniProt P42768); assay: as above
GST-WASP(201–321) K230A = GST-WASP(201–321) K230A (UniProt P42768); assay: as above
GST-WASP(201–321) K232A = GST-WASP(201–321) K232A (UniProt P42768); assay: as above
GST-WASP(201–321) K226A = GST-WASP(201–321) K226A (UniProt P42768); assay: as above
[10] = molecular target: GST-WASP(201–321) K231A/K232A (UniProt P42768); assay: as above
GST-WASP(201–321) K231A = GST-WASP(201–321) K231A (UniProt P42768); assay: as above

pKd [1]: 7.20
koff [1]: 0.0417 s⁻¹
kon [1]: 691000 M⁻¹ s⁻¹
pKd [2]: 7.09
koff [2]: 0.0371 s⁻¹
kon [2]: 456000 M⁻¹ s⁻¹
pKd (GST-WASP(201–321) K225A): 7.08
koff (GST-WASP(201–321) K225A): 0.0468 s⁻¹
kon (GST-WASP(201–321) K225A): 671000 M⁻¹ s⁻¹
pKd [3]: 7.22
koff [3]: 0.0295 s⁻¹
kon [3]: 490000 M⁻¹ s⁻¹
pKd [4]: 6.13
koff [4]: 0.145 s⁻¹
kon [4]: 198000 M⁻¹ s⁻¹
pKd [5]: 5.24
pKd [6]: 5.06
pKd [7]: 4.89
pKd [8]: 4.44
pKd [9]: 5.13
pKd (GST-WASP(201–321) R227A): 5.37
pKd (GST-WASP(201–321) K230A): 5.01
pKd (GST-WASP(201–321) K232A): 4.91
pKd (GST-WASP(201–321) K226A): 5.27
pKd [10]: 4.66
pKd (GST-WASP(201–321) K231A): 4.91
Substance: Cdc42 Δ7 Q61L (from UniProt P60953 1-191) (natural protein)
